{"source": "paper PMC12084609", "about": "“Structural insights into small-molecule agonist recognition and activation of complement receptor C3aR” (The EMBO Journal, 2025)", "key": {"C3aR R161^ECL2A": {"target": "T1, C3aR R161^ECL2A (Homo sapiens, UniProt Q16581, R161A)", "T1 construct": "expressed in transfected cells; host or cells: HEK293T", "T1 sequence (Q16581 1-482 R161A)": "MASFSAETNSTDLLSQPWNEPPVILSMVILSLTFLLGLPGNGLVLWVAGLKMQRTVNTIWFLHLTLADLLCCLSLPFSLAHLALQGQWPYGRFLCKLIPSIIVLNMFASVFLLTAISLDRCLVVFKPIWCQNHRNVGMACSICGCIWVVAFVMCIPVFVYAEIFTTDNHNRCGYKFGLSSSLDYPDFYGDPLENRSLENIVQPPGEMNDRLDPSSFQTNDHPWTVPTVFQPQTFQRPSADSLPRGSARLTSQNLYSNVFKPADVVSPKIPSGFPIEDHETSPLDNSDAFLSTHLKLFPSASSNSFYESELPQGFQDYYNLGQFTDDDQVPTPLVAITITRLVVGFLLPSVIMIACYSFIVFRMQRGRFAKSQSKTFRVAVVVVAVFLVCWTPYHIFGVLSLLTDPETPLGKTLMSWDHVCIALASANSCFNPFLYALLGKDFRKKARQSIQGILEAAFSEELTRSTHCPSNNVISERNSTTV", "test": "GloSensor-based cAMP assay, C3aR mutant R161A", "assay_type": "cell-based", "conditions": "R161ECL2A, single replicates", "experimental": "(§1) HEK293T cells were seeded on 6-well plates (NEST) and transfected with pGlosensor™-22F plasmids (Promega) and pcDNA3.1 plasmids encoding C3aR or its mutants an with N-terminal FLAG tag. After 48 h, cells were detached with Accutase solution (Sigma-Aldrich) and washed with PBS, and resuspended in assay buffer (CO2-independent medium with 0.5 mg mL^−1D-luciferin). 100,000–200,000 cells were seeded on 96-well white bottom plates (SPL) and incubated at 37 °C for 45 min followed by 45 min incubation at room temperature. After 90 min of incubation, basal luminescence signals were recorded. In total, 25 μl of test ligand with various concentrations and 1 μM Forskolin (Sigma-Aldrich) were treated to the cells and luminescence signals were measured by Tristar 2 LB 942 multimode reader (Berthold). […] Relative luminescence unit (%) was calculated with the signal of wells treated with vehicle as 0% and the signal of wells treated with 1 μM Forskolin as 100% (DiRaddo et al, [2014]). Nonlinear regression was performed using a three-parameter logistic equation."}, "C3aR R340^5.42A": {"target": "T2, C3aR R340^5.42A (Homo sapiens, UniProt Q16581, R340A)", "T2 construct": "expressed in transfected cells; host or cells: HEK293T", "T2 sequence (Q16581 1-482 R340A)": "T1 sequence (Q16581 1-482 R161A) with A161R, R340A", "test": "GloSensor-based cAMP assay, C3aR mutant R340A", "assay_type": "cell-based", "conditions": "for cAMP response (% Forskolin): R3405.42A, single replicates", "experimental": "as §1"}, "C3aR Y393^6.51A": {"target": "T3, C3aR Y393^6.51A (Homo sapiens, UniProt Q16581, Y393A)", "T3 construct": "expressed in transfected cells; host or cells: HEK293T", "T3 sequence (Q16581 1-482 Y393A)": "T1 sequence (Q16581 1-482 R161A) with A161R, Y393A", "test": "GloSensor-based cAMP assay, C3aR mutant Y393A", "assay_type": "cell-based", "conditions": "for cAMP response (% Forskolin): Y3936.51A, single replicates", "experimental": "as §1"}, "C3aR R161A": {"test_system": "C3aR R161A", "conditions": "quoted by Referee #2; ref https://doi.org/10.1038/s41589-023-01339-w; cited from earlier work"}}, "note": "Substitutions are numbered along the chain they refer to. “And” between values parts separate entries of the source, which are not always exact repeats. Equal values may be shown once.", "data": [{"substance": "C3a: anaphylatoxin C3a, natural peptide ligand of C3aR (a 77-amino acid peptide), Sigma-Aldrich", "values": [{"measurement": "cAMP response (% Forskolin)", "setting": "C3aR R161^ECL2A; Log[C3a (M)] -7", "result": "95.22 % Forskolin and 113.23 % Forskolin and 84.95 % Forskolin"}, {"measurement": "cAMP response (% Forskolin)", "setting": "C3aR R161^ECL2A; Log[C3a (M)] -8", "result": "93.59 % Forskolin and 100.34 % Forskolin and 90.06 % Forskolin"}, {"measurement": "cAMP response (% Forskolin)", "setting": "C3aR R161^ECL2A; Log[C3a (M)] -9", "result": "101.94 % Forskolin and 107.61 % Forskolin and 95.04 % Forskolin"}, {"measurement": "cAMP response (% Forskolin)", "setting": "C3aR R161^ECL2A; Log[C3a (M)] -10", "result": "94.48 % Forskolin and 102.25 % Forskolin and 94.73 % Forskolin"}, {"measurement": "cAMP response (% Forskolin)", "setting": "C3aR R161^ECL2A; Log[C3a (M)] -11", "result": "103.03 % Forskolin and 121.75 % Forskolin and 96.66 % Forskolin"}, {"measurement": "cAMP response (% Forskolin)", "setting": "C3aR R161^ECL2A; Log[C3a (M)] -12", "result": "95.52 % Forskolin and 105.32 % Forskolin and 102.35 % Forskolin"}, {"measurement": "ΔpIC50 ± SE of Diff.", "setting": "C3aR R340^5.42A; R340^5.42A relative to WT C3aR", "result": "-1.39 ± 0.06"}, {"measurement": "IC50", "setting": "C3aR R340^5.42A; R340^5.42A, dose-response plot, read-out: IC50", "result": 47, "unit": "nM"}, {"measurement": "pIC50 (Replicate)", "setting": "C3aR R340^5.42A; R340^5.42A, individual replicates", "result": "7.31 and 7.68 and 7.02 and 6.95"}, {"measurement": "pIC50 ± SEM (Mean)", "setting": "C3aR R340^5.42A; R340^5.42A, mean of independent experiments", "result": 7.21}, {"measurement": "cAMP response (% Forskolin)", "setting": "C3aR R340^5.42A; Log[C3a (M)] -7", "result": "25.35 % Forskolin and 26.64 % Forskolin and 21.46 % Forskolin and 37.94 % Forskolin and 13.15 % Forskolin and 37.80 % Forskolin"}, {"measurement": "cAMP response (% Forskolin)", "setting": "C3aR R340^5.42A; Log[C3a (M)] -8", "result": "77.37 % Forskolin and 75.03 % Forskolin and 71.05 % Forskolin and 86.28 % Forskolin and 86.11 % Forskolin and 85.37 % Forskolin"}, {"measurement": "cAMP response (% Forskolin)", "setting": "C3aR R340^5.42A; Log[C3a (M)] -9", "result": "91.29 % Forskolin and 112.12 % Forskolin and 107.73 % Forskolin and 93.95 % Forskolin and 109.05 % Forskolin and 100.87 % Forskolin"}, {"measurement": "cAMP response (% Forskolin)", "setting": "C3aR R340^5.42A; Log[C3a (M)] -10", "result": "92.00 % Forskolin and 91.42 % Forskolin and 98.18 % Forskolin and 91.19 % Forskolin and 108.32 % Forskolin and 87.99 % Forskolin"}, {"measurement": "cAMP response (% Forskolin)", "setting": "C3aR R340^5.42A; Log[C3a (M)] -11", "result": "98.26 % Forskolin and 112.91 % Forskolin and 108.63 % Forskolin and 92.51 % Forskolin and 96.75 % Forskolin and 86.60 % Forskolin"}, {"measurement": "cAMP response (% Forskolin)", "setting": "C3aR R340^5.42A; Log[C3a (M)] -12", "result": "94.72 % Forskolin and 95.53 % Forskolin and 102.57 % Forskolin and 99.30 % Forskolin and 100.29 % Forskolin and 108.61 % Forskolin"}, {"measurement": "ΔpIC50 ± SE of Diff.", "setting": "C3aR Y393^6.51A; Y393^6.51A relative to WT C3aR", "result": "-1.34 ± 0.2"}, {"measurement": "IC50", "setting": "C3aR Y393^6.51A; Y393^6.51A, dose-response plot, read-out: IC50", "result": 35.3, "unit": "nM"}, {"measurement": "pIC50 ± SEM (Mean)", "setting": "C3aR Y393^6.51A; Y393^6.51A, mean of independent experiments", "result": 7.26}, {"measurement": "cAMP response (% Forskolin)", "setting": "C3aR Y393^6.51A; Log[C3a (M)] -7", "result": "22.11 % Forskolin and 35.95 % Forskolin and 17.03 % Forskolin and 39.16 % Forskolin and 16.00 % Forskolin and 10.74 % Forskolin"}, {"measurement": "cAMP response (% Forskolin)", "setting": "C3aR Y393^6.51A; Log[C3a (M)] -8", "result": "77.53 % Forskolin and 92.37 % Forskolin and 48.78 % Forskolin and 85.94 % Forskolin and 83.42 % Forskolin and 59.04 % Forskolin"}, {"measurement": "cAMP response (% Forskolin)", "setting": "C3aR Y393^6.51A; Log[C3a (M)] -9", "result": "100.98 % Forskolin and 105.20 % Forskolin and 100.01 % Forskolin and 92.90 % Forskolin and 94.02 % Forskolin and 86.75 % Forskolin"}, {"measurement": "cAMP response (% Forskolin)", "setting": "C3aR Y393^6.51A; Log[C3a (M)] -10", "result": "91.84 % Forskolin and 102.66 % Forskolin and 96.87 % Forskolin and 100.10 % Forskolin and 89.56 % Forskolin and 88.42 % Forskolin"}, {"measurement": "cAMP response (% Forskolin)", "setting": "C3aR Y393^6.51A; Log[C3a (M)] -11", "result": "102.78 % Forskolin and 104.06 % Forskolin and 100.84 % Forskolin and 95.25 % Forskolin and 103.11 % Forskolin and 88.56 % Forskolin"}, {"measurement": "cAMP response (% Forskolin)", "setting": "C3aR Y393^6.51A; Log[C3a (M)] -12", "result": "99.54 % Forskolin and 99.47 % Forskolin and 94.11 % Forskolin and 90.18 % Forskolin and 94.48 % Forskolin and 86.37 % Forskolin"}, {"measurement": "decrease of potency toward C3aR by R161A", "setting": "C3aR R161A", "result": "~ 1000 fold"}]}]}
